Measured values reported in patent publication US20050164925A1 (JOSEPH ANTHONY JAKUBOWSKI AND THURMAN DWIGHT MC KINNEY, published 2005).
Several values for one entry are separate records, joined by “and”; a condition that tells them apart may be missing. Equal entries are not always repeated. Where no end group is shown, it is not given here.

T1: human GLP-1 receptor (human), P43220
T1 chain: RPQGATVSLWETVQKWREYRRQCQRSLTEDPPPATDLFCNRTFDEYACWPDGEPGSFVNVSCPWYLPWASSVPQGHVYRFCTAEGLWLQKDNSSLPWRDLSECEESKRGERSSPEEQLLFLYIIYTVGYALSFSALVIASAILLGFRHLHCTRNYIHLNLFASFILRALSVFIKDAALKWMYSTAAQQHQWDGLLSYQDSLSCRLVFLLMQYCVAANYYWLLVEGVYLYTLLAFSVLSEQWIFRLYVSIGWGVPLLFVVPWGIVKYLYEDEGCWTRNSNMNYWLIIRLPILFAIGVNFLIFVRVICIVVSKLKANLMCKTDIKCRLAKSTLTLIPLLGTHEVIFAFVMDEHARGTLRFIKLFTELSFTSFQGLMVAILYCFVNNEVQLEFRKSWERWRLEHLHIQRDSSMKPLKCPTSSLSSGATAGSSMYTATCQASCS

B1: Val^8-Leu^16-Glu^22-GLP-1(7-37)OH (peptide)
peptide: HVEGTFTSDLSSYLEEQAAKEFIAWLVKGRG-OH
B2: Val^8-Tyr^12-GLP-1(7-36)NH2 (peptide)
peptide: HVEGTYTSDVSSYLEGQAAKEFIAWLVKGX
modifications: C-terminal amide (Xaa at position 37 is -NH2)
B3: Val^8-Tyr^16-Trp^19-Glu^22-GLP-1(7-37)OH (peptide)
peptide: HVEGTFTSDYSSWLEEQAAKEFIAWLVKGRG-OH
B4: Val^8-Glu^22-Leu^25-GLP-1(7-37)OH (peptide)
peptide: HVEGTFTSDVSSYLEEQALKEFIAWLVKGRG-OH
B5: Val^8-Leu^16-GLP-1(7-37)OH (peptide)
peptide: HVEGTFTSDLSSYLEGQAAKEFIAWLVKGRG-OH
B6: Val^8-Trp^16-Glu^22-Val^25-GLP-1(7-37)OH (peptide)
peptide: HVEGTFTSDWSSYLEEQAVKEFIAWLVKGRG-OH
B7: Val^8-Glu^22-Ala^27-GLP-1(7-37)OH (peptide)
peptide: HVEGTFTSDVSSYLEEQAAKAFIAWLVKGRG-OH
B8: Val^8-Trp^12-Glu^22-GLP-1(7-37)OH (peptide)
peptide: HVEGTWTSDVSSYLEEQAAKEFIAWLVKGRG-OH
B9: Val^8-Tyr^12-Glu^22-GLP-1(7-37)OH (peptide)
peptide: HVEGTYTSDVSSYLEEQAAKEFIAWLVKGRG-OH
B10: Val^8-Tyr^18-Glu^22-GLP-1(7-37)OH (peptide)
peptide: HVEGTFTSDVSYYLEEQAAKEFIAWLVKGRG-OH
B11: Val^8-Trp^19-Glu^22-GLP-1(7-37)OH (peptide)
peptide: HVEGTFTSDVSSWLEEQAAKEFIAWLVKGRG-OH
B12: Val^8-Ile^16-Glu^22-GLP-1(7-37)OH (peptide)
peptide: HVEGTFTSDISSYLEEQAAKEFIAWLVKGRG-OH
B13: Val^8-Phe^16-Glu^22-GLP-1(7-37)OH (peptide)
peptide: HVEGTFTSDFSSYLEEQAAKEFIAWLVKGRG-OH
B14: Val^8-Tyr^16-Glu^22-GLP-1(7-37)OH (peptide)
peptide: HVEGTFTSDYSSYLEEQAAKEFIAWLVKGRG-OH
B15: Val^8-Glu^22-Val^25-GLP-1(7-37)OH (peptide)
peptide: HVEGTFTSDVSSYLEEQAVKEFIAWLVKGRG-OH
B16: Val^8-Trp^18-Glu^22-GLP-1(7-37)OH (peptide)
peptide: HVEGTFTSDVSWYLEEQAAKEFIAWLVKGRG-OH
B17: Val^8-Trp^16-Glu^22-GLP-1(7-37)OH (peptide)
peptide: HVEGTFTSDWSSYLEEQAAKEFIAWLVKGRG-OH
B18: Val^8-Asp^9-Ile^11-Tyr^16-Glu^22-GLP-1(7-37)OH (peptide)
peptide: HVDGIFTSDYSSYLEEQAAKEFIAWLVKGRG-OH
B19: Val^8-Glu^30-GLP-1(7-37)OH (peptide)
peptide: HVEGTFTSDVSSYLEGQAAKEFIEWLVKGRG-OH
B20: Val^8-Tyr^16-GLP-1(7-37)OH (peptide)
peptide: HVEGTFTSDYSSYLEGQAAKEFIAWLVKGRG-OH
B21: Val^8-Trp^16-Glu^22-Ile^33-GLP-1(7-37)OH (peptide)
peptide: HVEGTFTSDWSSYLEEQAAKEFIAWLIKGRG-OH
B22: Val^8-Tyr^12-Tyr^16-GLP-1(7-37)OH (peptide)
peptide: HVEGTYTSDYSSYLEGQAAKEFIAWLVKGRG-OH
B23: Val^8-Phe^20-Glu^22-GLP-1(7-37)OH (peptide)
peptide: HVEGTFTSDVSSYFEEQAAKEFIAWLVKGRG-OH
B24: Val^8-Glu^22-Ile^33-GLP-1(7-37)OH (peptide)
peptide: HVEGTFTSDVSSYLEEQAAKEFIAWLIKGRG-OH
B25: Val^8-Ile^18-Glu^22-GLP-1(7-37)OH (peptide)
peptide: HVEGTFTSDVSIYLEEQAAKEFIAWLVKGRG-OH
B26: Val^8-Trp^16-Glu^22-Val^25-Ile^33-GLP-1(7-37)OH (peptide)
peptide: HVEGTFTSDWSSYLEEQAVKEFIAWLIKGRG-OH
B27: Val^8-Tyr^16-Phe^19-GLP-1(7-37)OH (peptide)
peptide: HVEGTFTSDYSSFLEGQAAKEFIAWLVKGRG-OH
B28: Val^8-Lys^18-Glu^22-GLP-1(7-37)OH (peptide)
peptide: HVEGTFTSDVSKYLEEQAAKEFIAWLVKGRG-OH
B29: Val^8-Leu^25-GLP-1(7-37)OH (peptide)
peptide: HVEGTFTSDVSSYLEGQALKEFIAWLVKGRG-OH
B30: Val^8-Glu^22-Val^25-Ile^33-GLP-1(7-37)OH (peptide)
peptide: HVEGTFTSDVSSYLEEQAVKEFIAWLIKGRG-OH
B31: Val^8-Phe^19-Glu^22-GLP-1(7-37)OH (peptide)
peptide: HVEGTFTSDVSSFLEEQAAKEFIAWLVKGRG-OH
B32: Val^8-Glu^22-His^37-GLP-1(7-37)OH (peptide)
peptide: HVEGTFTSDVSSYLEEQAAKEFIAWLVKGRH-OH

Tests used:
[1] = target: T2, human GLP-1 receptor (Homo sapiens, UniProt P43220); experiment: In vitro potency assay (CRE-BLAM reporter, GLP-1 receptor signaling); assay type: cell-based; conditions: in vitro potency relative to Val^8-GLP-1(7-37)OH
T2 construct: expressed in transfected cells; host or cells: HEK-293 Aurora CRE-BLAM cells
Source text: The extent of the induction of cAMP levels can then be measured using a cAMP response element which drives the expression of a reporter gene such as luciferase or beta lactamase.
These HEK-293 cells have stably integrated a DNA vector having a cAMP response element (CRE) driving expression of the β-lactamase (BLAM) gene.
The day after seeding, the medium is replaced with plasma free medium.

[2] = target: T1, human GLP-1 receptor (human), P43220; experiment: cell-based or functional assay
[3] = target: human GLP-1 receptor (human, UniProt P43220 24-463); experiment: cell-based or functional assay

Molecule	EC50 Relative to Val^8-GLP-1(7-37)OH (relative to Val^8-GLP-1(7-37)OH) [2]	other results
Exendin-4	–	potency higher than Val^8-GLP-1(7-37)OH [1]: approximately 5 fold
Val^8-Glu^22-GLP-1(7-37)OH	–	potency higher than Val^8-GLP-1(7-37)OH [1]: approximately 3 fold
B1	4.3	–
B2	–	EC50 Relative to Val^8-GLP-1(7-37)OH [3]: 1.1 relative to Val^8-GLP-1(7-37)OH
B3	3.5	–
B4	2.8	–
B5	1.1	–
B6	4.4	–
B7	2.2	–
B8	1.7	–
B9	2.7	–
B10	5.1 and 5.9	–
B11	3.2	–
B12	3.3	–
B13	2.3	–
B14	3.6 and 3.8	–
B15	4.7 and 2.9	–

Molecule	EC50 Relative to Val^8-GLP-1(7-37)OH (relative to Val^8-GLP-1(7-37)OH) [2]	other results
B16	3.2 and 6.6	–
B17	4.9 and 4.6	–
B18	4.3	–
B19	0.7	–
B20	2.5	–
B21	4.1	–
B22	1.5	–
B23	2.7	–
B24	4.7 and 3.8 and 3.4	–
B25	4	–
B26	5	–
B27	2.8	–
B28	2.5	–
B29	0.5	–
B30	4.9 and 5.8 and 6.7	–
B31	1.5	–
B32	4.7	–
